Residue numbers refer to the chain shown, from its start. Names may count otherwise.

The results in this text go back to patent US20260049138A1 (Chugai, published 2026).

B1: CE115HA000 K75R one-arm antibody (antibody, human IgG1, kappa, L234A L235A, N297A, name in Kabat numbering)
heavy: QVQLVESGGGVVQPGRSLRLSCAASGFTFSNAWMHWVRQAPGKGLEWVAQIKAKSNNYATYYAESVKGRFTISRDDSRNSLYLQMNSLKTEDTAVYYCRYVHYGAYYGVDAWGQGTTVTVSSASTKGPSVFPLAPSSKSTSGGTAALGCLVKDYFPEPVTVSWNSGALTSGVHTFPAVLQSSGLYSLSSVVTVPSSSLGTQTYICNVNHKPSNTKVDKKVEPKSCDKTHTCPPCPAPEAAGGPSVFLFPPKPKDTLMISRTPEVTCVVVDVSHEDPEVKFNWYVDGVEVHNAKTKPREEQYASTYRVVSVLTVLHQDWLNGKEYKCKVSNKALPAPIEKTISKAKGQPREPQVYTLPPSRCELTKNQVSLSCAVKGFYPSDIAVEWESNGQPENNYKTTPPVLDSDGSFFLVSKLTVDKSRWQQGNVFSCSVMHEALHNHYTQKSLSLSPDYKDDDDK
chain: EPKSSDKTHTCPPCPAPELLGGPSVFLFPPKPKDTLMISRTPEVTCVVVDVSHEDPEVKFNWYVDGVEVHNAKTKPREEQYNSTYRVVSVLTVLHQDWLNGKEYKCKVSNKALPAPIEKTISKAKGQPREPQVCTLPPSRDELTKNQVSLWCLVKGFYPSDIAVEWESNGQPENNYKTTPPVLDSDGSFFLYSKLTVDKSRWQQGNVFSCSVMHEALHNRYTQKSLSLSP
light: DIVMTQSPLSLPVTPGEPASISCRSSQSLVHSNRNTYLHWYQQKPGQAPRLLIYKVSNRFSGVPDRFSGSGSGTDFTLKISRVEAEDVGVYYCGQGTQVPYTFGQGTKLEIKRTVAAPSVFIFPPSDEQLKSGTASVVCLLNNFYPREAKVQWKVDNALQSGNSQESVTEQDSKDSTYSLSSTLTLSKADYEKHKVYACEVTHQGLSSPVTKSFNRGEC
B2: CE115HA000 N53Y one-arm antibody (antibody, human IgG1, kappa, L234A L235A, N297A, name in Kabat numbering)
heavy: B1 heavy with N56Y, R78K
chain: B1 chain
light: B1 light
B3: CE115HA000 N53Q one-arm antibody (antibody, human IgG1, kappa, L234A L235A, N297A, name in Kabat numbering)
heavy: B1 heavy with N56Q, R78K
chain: B1 chain
light: B1 light
B4: CE115HA000 N31K one-arm antibody (antibody, human IgG1, kappa, L234A L235A, N297A, name in Kabat numbering)
heavy: B1 heavy with N31K, R78K
chain: B1 chain
light: B1 light
B5: CE115HA000 N54D one-arm antibody (antibody, human IgG1, kappa, L234A L235A, N297A, name in Kabat numbering)
heavy: B1 heavy with N57D, R78K
chain: B1 chain
light: B1 light
B6: CE115HA000 N53G one-arm antibody (antibody, human IgG1, kappa, L234A L235A, N297A, name in Kabat numbering)
heavy: B1 heavy with N56G, R78K
chain: B1 chain
light: B1 light
B7: CE115HA000 N31A one-arm antibody (antibody, human IgG1, kappa, L234A L235A, N297A, name in Kabat numbering)
heavy: B1 heavy with N31A, R78K
chain: B1 chain
light: B1 light
notes: One-arm antibody: altered VH-pE22Hh, Kn010G3, GLS3000-kappa; The same holds for m64 to m321
B8: CE115HA000 N31I one-arm antibody (antibody, human IgG1, kappa, L234A L235A, N297A, name in Kabat numbering)
heavy: B1 heavy with N31I, R78K
chain: B1 chain
light: B1 light
B9: CE115HA000 N31S one-arm antibody (antibody, human IgG1, kappa, L234A L235A, N297A, name in Kabat numbering)
heavy: B1 heavy with N31S, R78K
chain: B1 chain
light: B1 light
B10: CE115HA000 N53K one-arm antibody (antibody, human IgG1, kappa, L234A L235A, N297A, name in Kabat numbering)
heavy: B1 heavy with N56K, R78K
chain: B1 chain
light: B1 light
B11: CE115HA000 N54A one-arm antibody (antibody, human IgG1, kappa, L234A L235A, N297A, name in Kabat numbering)
heavy: B1 heavy with N57A, R78K
chain: B1 chain
light: B1 light
B12: CE115HA000 K75T one-arm antibody (antibody, human IgG1, kappa, L234A L235A, N297A, name in Kabat numbering)
heavy: B1 heavy with R78T
chain: B1 chain
light: B1 light
B13: CE115HA000 N31D one-arm antibody (antibody, human IgG1, kappa, L234A L235A, N297A, name in Kabat numbering)
heavy: B1 heavy with N31D, R78K
chain: B1 chain
light: B1 light
B14: CE115HA000 N54K one-arm antibody (antibody, human IgG1, kappa, L234A L235A, N297A, name in Kabat numbering)
heavy: B1 heavy with N57K, R78K
chain: B1 chain
light: B1 light
B15: CE115HA000 L78I one-arm antibody (antibody, human IgG1, kappa, L234A L235A, N297A, name in Kabat numbering)
heavy: B1 heavy with R78K, L81I
chain: B1 chain
light: B1 light
B16: CE115HA000 N31R one-arm antibody (antibody, human IgG1, kappa, L234A L235A, N297A, name in Kabat numbering)
heavy: B1 heavy with N31R, R78K
chain: B1 chain
light: B1 light
B17: CE115HA000 N31Q one-arm antibody (antibody, human IgG1, kappa, L234A L235A, N297A, name in Kabat numbering)
heavy: B1 heavy with N31Q, R78K
chain: B1 chain
light: B1 light
B18: CE115HA000 N53D one-arm antibody (antibody, human IgG1, kappa, L234A L235A, N297A, name in Kabat numbering)
heavy: B1 heavy with N56D, R78K
chain: B1 chain
light: B1 light
B19: CE115HA000 N53I one-arm antibody (antibody, human IgG1, kappa, L234A L235A, N297A, name in Kabat numbering)
heavy: B1 heavy with N56I, R78K
chain: B1 chain
light: B1 light
B20: CE115HA000 N54L one-arm antibody (antibody, human IgG1, kappa, L234A L235A, N297A, name in Kabat numbering)
heavy: B1 heavy with N57L, R78K
chain: B1 chain
light: B1 light
B21: CE115HA000 N53H one-arm antibody (antibody, human IgG1, kappa, L234A L235A, N297A, name in Kabat numbering)
heavy: B1 heavy with N56H, R78K
chain: B1 chain
light: B1 light
B22: CE115HA000 N31F one-arm antibody (antibody, human IgG1, kappa, L234A L235A, N297A, name in Kabat numbering)
heavy: B1 heavy with N31F, R78K
chain: B1 chain
light: B1 light
B23: CE115HA000 N31H one-arm antibody (antibody, human IgG1, kappa, L234A L235A, N297A, name in Kabat numbering)
heavy: B1 heavy with N31H, R78K
chain: B1 chain
light: B1 light
B24: CE115HA000 N31W one-arm antibody (antibody, human IgG1, kappa, L234A L235A, N297A, name in Kabat numbering)
heavy: B1 heavy with N31W, R78K
chain: B1 chain
light: B1 light
B25: CE115HA000 N53W one-arm antibody (antibody, human IgG1, kappa, L234A L235A, N297A, name in Kabat numbering)
heavy: B1 heavy with N56W, R78K
chain: B1 chain
light: B1 light
B26: CE115HA000 N54G one-arm antibody (antibody, human IgG1, kappa, L234A L235A, N297A, name in Kabat numbering)
heavy: B1 heavy with N57G, R78K
chain: B1 chain
light: B1 light
B27: CE115HA000 N31G one-arm antibody (antibody, human IgG1, kappa, L234A L235A, N297A, name in Kabat numbering)
heavy: B1 heavy with N31G, R78K
chain: B1 chain
light: B1 light
B28: CE115HA000 N53S one-arm antibody (antibody, human IgG1, kappa, L234A L235A, N297A, name in Kabat numbering)
heavy: B1 heavy with N56S, R78K
chain: B1 chain
light: B1 light
B29: CE115HA000 N53A one-arm antibody (antibody, human IgG1, kappa, L234A L235A, N297A, name in Kabat numbering)
heavy: B1 heavy with N56A, R78K
chain: B1 chain
light: B1 light
B30: CE115HA000 N31Y one-arm antibody (antibody, human IgG1, kappa, L234A L235A, N297A, name in Kabat numbering)
heavy: B1 heavy with N31Y, R78K
chain: B1 chain
light: B1 light
B31: CE115HA000 N54F one-arm antibody (antibody, human IgG1, kappa, L234A L235A, N297A, name in Kabat numbering)
heavy: B1 heavy with N57F, R78K
chain: B1 chain
light: B1 light

This assay deals with T1, CD3ε homodimer protein (human, UniProt P07766 23-126, limits assumed, sulfo-tag or biotin label in the ECL assays; amine-coupled to the chip in SPR).
T1 construct: also called human CD3ε homodimer protein; CD3 (CD3ε)
T1 sequence (P07766 23-126 limits assumed): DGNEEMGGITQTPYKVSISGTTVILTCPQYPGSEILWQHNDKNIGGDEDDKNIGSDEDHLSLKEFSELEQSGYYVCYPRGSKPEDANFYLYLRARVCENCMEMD
Kind of assay: SPR Biacore T200; CD3ε homodimer on CM4 chip.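 Note: Single-residue variant antibodies injected as analyte over CD3ε homodimer immobilized by amine coupling, run at 25 °C in HBS-EP+ buffer.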 In general terms: Surface plasmon resonance follows binding to a sensor surface in real time, without labels.
B1: the “ratio of amounts bound Z=Y/X (altered form / CE115HA000)” value amounted to 1.01.

As for B2, the “ratio of amounts bound Z=Y/X (altered form / CE115HA000)” value was 0.63.

In the case of B3, the “ratio of amounts bound Z=Y/X (altered form / CE115HA000)” value was found to be 1.1.

Take B4: the “ratio of amounts bound Z=Y/X (altered form / CE115HA000)” value came to 1.01.

Regarding B5, the “ratio of amounts bound Z=Y/X (altered form / CE115HA000)” value came to 0.62.

Take B6: the “ratio of amounts bound Z=Y/X (altered form / CE115HA000)” value was 0.5.

On to B7, for which the “ratio of amounts bound Z=Y/X (altered form / CE115HA000)” value was 0.5.

As to B8, the “ratio of amounts bound Z=Y/X (altered form / CE115HA000)” value amounted to 0.81.

For the molecule B9, the “ratio of amounts bound Z=Y/X (altered form / CE115HA000)” value was 0.81.

With B10, the “ratio of amounts bound Z=Y/X (altered form / CE115HA000)” value was determined as 0.78.

With B11, the “ratio of amounts bound Z=Y/X (altered form / CE115HA000)” value is 0.86.

For B12, the “ratio of amounts bound Z=Y/X (altered form / CE115HA000)” value is 0.84.

Regarding B13, the “ratio of amounts bound Z=Y/X (altered form / CE115HA000)” value was 0.37.

As for B14, the “ratio of amounts bound Z=Y/X (altered form / CE115HA000)” value turned out to be 1.2.

Regarding B15, the “ratio of amounts bound Z=Y/X (altered form / CE115HA000)” value is 1.34.

As for B16, the “ratio of amounts bound Z=Y/X (altered form / CE115HA000)” value worked out at 1.14.

In the case of B17, the “ratio of amounts bound Z=Y/X (altered form / CE115HA000)” value turned out to be 0.49.

In the case of B18, the “ratio of amounts bound Z=Y/X (altered form / CE115HA000)” value is 0.39.

Consider B19, for which the “ratio of amounts bound Z=Y/X (altered form / CE115HA000)” value was 0.68.

Turning to B20, the “ratio of amounts bound Z=Y/X (altered form / CE115HA000)” value was determined as 0.94.

For the molecule B21, the “ratio of amounts bound Z=Y/X (altered form / CE115HA000)” value worked out at 0.76.

For the molecule B22, the “ratio of amounts bound Z=Y/X (altered form / CE115HA000)” value stood at 0.62.

In the case of B23, the “ratio of amounts bound Z=Y/X (altered form / CE115HA000)” value is 0.68.

Regarding B24, the “ratio of amounts bound Z=Y/X (altered form / CE115HA000)” value was 0.63.

With B25, the “ratio of amounts bound Z=Y/X (altered form / CE115HA000)” value worked out at 0.88.

In the case of B26, the “ratio of amounts bound Z=Y/X (altered form / CE115HA000)” value was found to be 0.98.

Take B27: the “ratio of amounts bound Z=Y/X (altered form / CE115HA000)” value came to 0.39.

Consider B28, for which the “ratio of amounts bound Z=Y/X (altered form / CE115HA000)” value was 0.83.

Take B29: the “ratio of amounts bound Z=Y/X (altered form / CE115HA000)” value is 0.7.

As for B30, the “ratio of amounts bound Z=Y/X (altered form / CE115HA000)” value is 0.64.

For B31, the “ratio of amounts bound Z=Y/X (altered form / CE115HA000)” value came out at 1.12.
